PMC5998137, “Regulation of the β-hemolysin gene cluster of Streptococcus anginosus by CcpA”

Molecular target: CcpA (Streptococcus anginosus, UniProt A0A412PPL7 1-334)
Experiment: EMSA; 0.5-8 µg CcpA, 5 pmol probe; no HPr or fructose-1,6-bisphosphate; 500-fold unlabeled creC inhibits the shift
Details: protein: recombinant; tags: N-terminal His6; chain copies: 2; label: 5' IRDye700 on strand 1 (probe); blunt

B1: creC (dsDNA)
DNA 1: GTTTACGCGAAAGCGCTTTTTTTATATA
DNA 2: TATATAAAAAAAGCGCTTTCGCGTAAAC
Question: Does B1 bind?
Answer: binds
